In US20220056147A1:
Each block holds one binder with its values, some of them ahead of it.

Tests used:
[1] = molecular target: human MSLN on Oval-Citar-3-MSLN cells (human) (UniProt Q13421); experiment: cell ELISA on fixed Oval-Citar-3-MSLN cells, HRP anti-human IgG Fc detection
[2] = molecular target: human MSLN on Oval-Citar-3-MSLN cells (human) (UniProt Q13421); experiment: flow cytometry on fixed Oval-Citar-3-MSLN cells, FITC anti-human IgG Fc detection

Chain of human MSLN on Oval-Citar-3-MSLN cells (human) (Q13421 other isoform, or with tags, fused parts or gaps limits assumed): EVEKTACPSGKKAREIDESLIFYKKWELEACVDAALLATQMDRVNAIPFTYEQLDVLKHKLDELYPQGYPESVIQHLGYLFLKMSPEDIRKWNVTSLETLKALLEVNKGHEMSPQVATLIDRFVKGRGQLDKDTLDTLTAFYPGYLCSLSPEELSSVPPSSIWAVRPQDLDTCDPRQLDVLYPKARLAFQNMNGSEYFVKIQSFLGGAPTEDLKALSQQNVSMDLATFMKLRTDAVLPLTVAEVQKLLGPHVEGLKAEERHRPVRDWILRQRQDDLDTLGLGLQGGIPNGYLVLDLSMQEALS

EC50 [1]: 0.011 µg/mL | EC50 [2]: 0.153 µg/mL
B1: RC88 antibody (antibody, human IgG1, kappa, V domains shown)
VH: EVQLVESGGGLVQPGGSLRLSCAASGFDFSRYWMSWVRQAPGKGLEWIGEINPDSSTIVYTPSLKDKFIISRDNAKNTLYLQMNSLRAEDTALYYCARRGSHYYGYRTGYFDVWGAGTTVTVSS
VL: DVVMTQSPAFLSVTPGEKVTMTCSASSSVSYMYWHQQKPDQAPKLLIYDTSNLASGVPVRFSGSGSGTDFTFTISRMEAEDAATYYCQQWSSYPPTFGGGTKVEIKR

EC50 [1]: 0.0197 µg/mL | EC50 [2]: 0.251 µg/mL
B2: RC88-Py-MAA-Val-Cit-PAB-MMAE (antibody, human IgG1, kappa, V domains shown)
VH: B1 VH
VL: B1 VL
modifications: Py-MAA-Val-Cit-PAB-MMAE linker-drug coupled to cysteine thiols of reduced disulfide bonds (bridging linker); positions not given; DAR 3.95
